Results as given in PMC10943247 (The EMBO Journal, 2024).

B1: FNIP1/FLCN complex (complex, human)
chain 1: MAPTLFQKLFSKRTGLGAPGRDARDPDCGFSWPLPEFDPSQIRLIVYQDCERRGRNVLFDSSVKRRNEDISVSKLGSDAQVKVFGKCCQLKPGGDSSSSLDSSVTSSSDIKDQCLKYQGSRCSSDANMLGEMMFGSVAMSYKGSTLKIHQIRSPPQLMLSKVFTARTGSSICGSLNTLQDSLEFINQDNNTLKADNNTVINGLLGNIGLSQFCSPRRAFSEQGPLRLIRSASFFAVHSNPMDMPGRELNEDRDSGIARSASLSSLLITPFPSPNSSLTRSCASSYQRRWRRSQTTSLENGVFPRWSIEESFNLSDESCGPNPGIVRKKKIAIGVIFSLSKDEDENNKFNEFFFSHFPLFESHMNKLKSAIEQAMKMSRRSADASQRSLAYNRIVDALNEFRTTICNLYTMPRIGEPVWLTMMSGTPEKNHLCYRFMKEFTFLMENASKNQFLPALITAVLTNHLAWVPTVMPNGQPPIKIFLEKHSSQSVDMLAKTHPYNPLWAQLGDLYGAIGSPVRLARTVVVGKRQDMVQRLLYFLTYFIRCSELQETHLLENGEDEAIVMPGTVITTTLEKGEIEESEYVLVTMHRNKSSLLFKESEEIRTPNCNCKYCSHPLLGQNVENISQQEREDIQNSSKELLGISDECQMISPSDCQEENAVDVKQYRDKLRTCFDAKLETVVCTGSVPVDKCALSESGLESTEETWQSEKLLDSDSHTGKAMRSTGMVVEKKPPDKIVPASFSCEAAQTKVTFLIGDSMSPDSDTELRSQAVVDQITRHHTKPLKEERGAIDQHQETKQTTKDQSGESDTQNMVSEEPCELPCWNHSDPESMSLFDEYFNDDSIETRTIDDVPFKTSTDSKDHCCMLEFSKILCTKNNKQNNEFCKCIETVPQDSCKTCFPQQDQRDTLSILVPHGDKESSDKKIAVGTEWDIPRNESSDSALGDSESEDTGHDMTRQVSSYYGGEQEDWAEEDEIPFPGSKLIEVSAVQPNIANFGRSLLGGYCSSYVPDFVLQGIGSDERFRQCLMSDLSHAVQHPVLDEPIAEAVCIIADMDKWTVQVASSQRRVTDNKLGKEVLVSSLVSNLLHSTLQLYKHNLSPNFCVMHLEDRLQELYFKSKMLSEYLRGQMRVHVKELGVVLGIESSDLPLLAAVASTHSPYVAQILL
chain 2: MNAIVALCHFCELHGPRTLFCTEVLHAPLPQGDGNEDSPGQGEQAEEEEGGIQMNSRMRAHSPAEGASVESSSPGPKKSDMCEGCRSLAAGHPGYISHDKETSIKYVSHQHPSHPQLFSIVRQACVRSLSCEVCPGREGPIFFGDEQHGFVFSHTFFIKDSLARGFQRWYSIITIMMDRIYLINSWPFLLGKVRGIIDELQGKALKVFEAEQFGCPQRAQRMNTAFTPFLHQRNGNAARSLTSLTSDDNLWACLHTSFAWLLKACGSRLTEKLLEGAPTEDTLVQMEKLADLEEESESWDNSEAEEEEKAPVLPESTEGRELTQGPAESSSLSGCGSWQPRKLPVFKSLRHMRQVLGAPSFRMLAWHVLMGNQVIWKSRDVDLVQSAFEVLRTMLPVGCVRIIPYSSQYEEAYRCNFLGLSPHVQIPPHVLSSEFAVIVEVHAAARSTLHPVGCEDDQSLSKYEFVVTSGSPVAADRVGPTILNKIEAALTNQNLSVDVVDQCLVCLKEEWMNKVKVLFKFTKVDSRPKEDTQKLLSILGASEEDNVKLLKFWMTGLSKTYKSHLMSTVRSPTASESRN
notes: Folliculin (FLCN), human; Calculated mass of the heterodimer printed as 195.8 kDa; also called FNIP1/FLCN heterodimer; source: HEK293F, BacMam baculovirus, purified (Ni-NTA, Strep Trap, TEV, Superose 6); not shown: mCherry, C-terminal, cleaved; His6, C-terminal, cleaved; 2x Strep-tag, C-terminal, cleaved
B2: MBP-BEX2 (natural protein)
chain: MESKEERALNNLIVENVNQENDEKDEKEQVANKGEPLALPLNVSEYCVPRGNRRRFRVRQPILQYRWDIMHRLGEPQARMREENMERIGEEVRQLMEKLREKQLSHSLRAVSTDPPHHDHHDEFCLMP
notes: Protein BEX2, human; source: E. coli BL21(DE3), purified (Ni-NTA, Superdex 200); not shown: MBP, N-terminal, kept

Assays:
Settings in all cases: both partners purified
[1] = molecular target: T1, CRL2^FEM1B complex with FEM1B^F549R, unneddylated (human, UniProt Q13617 1-745; P62877 1-108; Q15370 1-104; Q15369 17-112; Q9UK73 1-627, F549R); experiment: grating-coupled interferometry; Creoptix WAVE; MBP-BEX2 and FNIP1/FLCN amine-coupled to 4PCP chips; CRL2^FEM1B injected in a 1:3 dilution series from 1 μM in 10 mM HEPES pH 7.5, 150 mM NaCl, 50 μM ZnCl2, 25 °C; 1:1 kinetics model
T1 construct: Cullin-2 (CUL2), human; primers from the start codon to the last codon; RING-box protein 1 (RBX1), human; primers from the start codon to the stop codon; Elongin-B (ELOB), human, residues 1-104; Elongin-C (ELOC), human, residues 17-112; Protein fem-1 homolog B (FEM1B), human, F549R; also called CRL2FEM1B-F549R; source: CUL2/RBX1 from SF9 insect cells and mutant FEM1B/ELOB/ELOC from E. coli …

[2] = molecular target: T2, CRL2^FEM1B complex with FEM1B^Δ546-553 (FEM1B^DEL), unneddylated (human, UniProt Q13617 1-745; P62877 1-108; Q15370 1-104; Q15369 17-112; Q9UK73 1-627, Δ546-553); experiment: as above
T2 construct: Cullin-2 (CUL2), human; primers from the start codon to the last codon; RING-box protein 1 (RBX1), human; primers from the start codon to the stop codon; Elongin-B (ELOB), human, residues 1-104; Elongin-C (ELOC), human, residues 17-112; Protein fem-1 homolog B (FEM1B), human, with residues 546-553 deleted; also called CRL2FEM1B-DEL; source: CUL2/RBX1 from SF9 insect cells and mutant …

[3] = molecular target: T3, CRL2^FEM1B complex with FEM1B^F549T, unneddylated (human, UniProt Q13617 1-745; P62877 1-108; Q15370 1-104; Q15369 17-112; Q9UK73 1-627, F549T); experiment: as above
T3 construct: Cullin-2 (CUL2), human; primers from the start codon to the last codon; RING-box protein 1 (RBX1), human; primers from the start codon to the stop codon; Elongin-B (ELOB), human, residues 1-104; Elongin-C (ELOC), human, residues 17-112; Protein fem-1 homolog B (FEM1B), human, F549T; also called CRL2FEM1B-F549T; source: CUL2/RBX1 from SF9 insect cells and mutant FEM1B/ELOB/ELOC from E. coli …

[4] = molecular target: T4, CRL2^FEM1B complex with FEM1B^Y275R/L278R, unneddylated (human, UniProt Q13617 1-745; P62877 1-108; Q15370 1-104; Q15369 17-112; Q9UK73 1-627, Y275R | L278R); experiment: as above
T4 construct: Cullin-2 (CUL2), human; primers from the start codon to the last codon; RING-box protein 1 (RBX1), human; primers from the start codon to the stop codon; Elongin-B (ELOB), human, residues 1-104; Elongin-C (ELOC), human, residues 17-112; Protein fem-1 homolog B (FEM1B), human, Y275R/L278R; also called CRL2FEM1B-Y275R/L278R; CRL2FEM1B-Y275RL278R; source: CUL2/RBX1 from SF9 insect cells and mutant …

[5] = molecular target: T5, CRL2^FEM1B complex with FEM1B^F549S, unneddylated (human, UniProt Q13617 1-745; P62877 1-108; Q15370 1-104; Q15369 17-112; Q9UK73 1-627, F549S); experiment: as above
T5 construct: Cullin-2 (CUL2), human; primers from the start codon to the last codon; RING-box protein 1 (RBX1), human; primers from the start codon to the stop codon; Elongin-B (ELOB), human, residues 1-104; Elongin-C (ELOC), human, residues 17-112; Protein fem-1 homolog B (FEM1B), human, F549S; also called CRL2FEM1B-F549S; source: CUL2/RBX1 from SF9 insect cells and mutant FEM1B/ELOB/ELOC from E. coli …

[6] = molecular target: T6, RBX1, as the subunit of CRL2^FEM1B (human, UniProt P62877 1-108); experiment: cryo-EM structure; neddylated CRL2^FEM1B and FNIP1-FLCN mixed 1:1.2, 1 h at 4 °C, GraFix, 1.38 mg/ml
T6 construct: RING-box protein 1 (RBX1), human; primers RBX1-f/RBX1-r run from the start codon to the stop codon; Seen as a subunit of the complexes m1 and m7 in the cryo-EM structures; source: SF9 insect cells, co-expressed with CUL2, purified; within the reconstituted CRL2^FEM1B complex
T6 sequence (P62877 whole entry): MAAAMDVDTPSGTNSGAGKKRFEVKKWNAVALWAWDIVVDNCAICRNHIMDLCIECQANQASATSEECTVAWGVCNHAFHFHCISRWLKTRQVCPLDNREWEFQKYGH

Row | Binder | Kd [1] | Kd [2] | Kd [3] | Kd [4] | Kd [5] | binding result [6]
1 | B1 | 8.99 nM | 4.72 nM | 33.3 nM | 3.13 nM | 17.5 nM | binds
2 | B2 | 14 nM | 6.62 nM | 109 nM | 3.99 nM | 23 nM | –
